Numbering of substitutions follows the chain as printed. Each block holds one binder with its values, some of them ahead of it.
Experiments:
[1] = target: T1, cynomolgus PD-1-his protein (Cat#:PD1-05223, Acro biosystems Inc.) (cynomolgus, UniProt B0LAJ3 25-170); assay: indirect ELISA on coated cynomolgus PD-1-his
T1 construct: Bought protein used in Biacore and indirect ELISA; also called monkey PD-1; Cyno PD-1

[2] = target: T2, in house made human PD-1-Fc protein (human, biotin-labeled (sites not given)); assay: competitive ELISA: biotin human PD-1-Fc + antibody on coated human PD-L1-Fc (competitor)
T2 construct: also called biotin-labeled human PD-1-Fc
Protocol: Briefly, 100 μl human PD-L1-Fc protein (prepared in-house with SEQ ID NO: 28) at 2 μg/mL in carbonate/bicarbonate buffer (pH 9.6) was coated on 96-well micro plates overnight at 4° C., Plates were washed with wash buffer (PBS+0.05% w/v Tween-20, PBST), and blocked with 5% w/v non-fatty milk in PBST for 2 hours at 37° C. […] After incubation at 37° C. for 40 minutes, plates were washed using wash buffer. […] Plates were washed again using wash buffer. Finally, TMB was added and the reaction was stopped using 1M H₂SO₄. The absorbance was read on a microplate reader using dual wavelength mode with 450 nm for TMB and 630 nm as the reference wavelength, then the OD (450-630) values were plotted against antibody concentrations. Data was analyzed using Graphpad Prism software and IC₅₀ values were reported.

[3] = target: T2, in house made human PD-1-Fc protein; assay: blocking FACS: biotin human PD-1-Fc + antibody on GS-C2/PD-L1 cells (competitor: cell-surface human PD-L1)
Protocol: GS-C2/PDL1 cells were harvested from cell culture flasks at the log phase, washed twice and re-suspended in PBS containing 2% v/v Fetal Bovine Serum (FACS buffer). GS-C2/PD-L1 cells, 0.6×10⁵ cells per welt, were incubated in 96 well-plates with 100 the antibody/PD1-Fc mixture for 40 minutes at 4° C. Cells were washed twice with FACS buffer, added with 100 R-Phycoerythrin Streptavidin (1:500 dilution in FACS buffer, Cat#:016-110-084, Jackson Immunoresearch), and incubated for 40 minutes at 4° C. in dark. Cells were washed twice and re-suspended in FACS buffer. Fluorescence was measured using a Becton Dickinson FACS Canto II-HTS equipment. Data was analyzed using Graphpad Prism software and IC₅₀ values were reported.

[4] = target: T3, human PD-1-his protein prepared in-house (human, UniProt Q15116 25-167, biotin-labeled (sites not given)); assay: capture ELISA, antibody captured, biotin human PD-1-his detected
T3 construct: also called biotin labeled human PD-1-his
Protocol: Briefly, 96-well micro plates were coated with 100 μl 2 μg/ml AffiniPure Goat Anti-Mouse IgG F(ab′)₂ fragment specific (Cat#:115-005-072, Jackson lmmunoResearch) or Goat-anti-human IgG (Cat#:109-005-097, Jackson ImmunoResearch, for the positive control and negative control) in PBS overnight at 4° C. Plates were washed once with wash buffer (PBST, PBS+0.05% Tween-20) and then blocked with 200 μl/well blocking buffer (5% w/v non-fatty milk in PBST) for 2 hours at 37° C. […] After a final wash, plates were incubated with 100 μl/well TMB (Cat#:TMB-S-002, Innoreagents) at room temperature.
For the capture ELISA, 96-well plates were coated with 100 μl 2 μg/ml AffiniPure Goat Anti-Human IgG, Fcγ fragment specific (Cat#:109-005-098, Jackson Immunoresearch) instead of AffiniPure goat-anti-mouse IgG F(ab′)₂ fragment specific.

[5] = target: T4, human PD-1 expressed on GS-J2/PD-1 cells (Genscript) (human, UniProt Q15116 25-288); assay: flow cytometry on GS-J2/PD-1 cells
T4 construct: whole, on cells; also called cell-surface human PD-1
Protocol: In specific, the 293F-mouse PD-1 cells and GS-J2/PD-1 cells were respectively harvested from cell culture flasks, washed twice and re-suspended in PBS containing 2% v/v Fetal Bovine Serum (FACS buffer). Then, 2×10⁵ cells per well were incubated in 96 well-plates with 100 μl of the anti-PD1 antibodies or controls at various concentrations for 40 minutes on ice. […] Following an incubation of 40 minutes at 4° C. in dark, cells were washed three times and re-suspended in FACS buffer. Fluorescence was measured using a Becton Dickinson FACS Canto II-HTS equipment and plotted against antibody concentrations. Data was analyzed using GraphPad Prism software and EC₅₀ values were reported.
For the cell-based binding FACS, R-Phycoerythrin AffiniPure Goat Anti-human IgG Fcγ fragment specific (Cat#:109-115-098, Jackson ImmunoResearch) was used for the humanized antibodies, with 1:1000 dilution in FACS buffer, 100 μl/well.

[6] = target: T4, human PD-1 expressed on GS-J2/PD-1 …; assay: cell-based or functional assay
[7] = target: T5, human PD-1-his protein (Cat#:PD1-H5221, Acro biosystems Inc.) (human, UniProt Q15116 25-167); assay: BLI (Octet RED96), supernatant antibody captured on AHC sensor, human PD-1-his in solution, 1:1 fit
T5 construct: not shown: his tag
Protocol: (§1) Briefly, AHC biosensors (anti-human IgG Fe capture, from ForteBio) were presoaked with 10 mM glycine (pH 1.5) for 3 seconds, and then dipped in a well with running buffer (0.5% w/v BSA in PBST) for 3 seconds, the soaking and dipping steps were repeated for three times. […] A new baseline was run for 100 seconds in another well with running buffer. Then the sensors were dipped in a well with serially diluted human PD-1-his protein (Cat#:PD1-H5221, Acro biosystems Inc., starting at 100 nM with a two-fold serial dilution) in running buffer for 120 seconds, and then immersed in a baseline well for […]. Finally, sensors were presoaked with 10 mM glycine (pH 1.5) for 30 seconds, and then were dipped in a well with running buffer for 30 seconds. The association and dissociation curves were fit to a 1:1 Langmuir binding model using ForteBio Data Analysis 8.1 evaluation software.

[8] = target: T3, human PD-1-his protein prepared in-house; assay: competitive ELISA: biotin human PD-1-his + antibody on coated Pembrolizumab (competitor)
Protocol: ELISA plates were washed once with wash buffer (PBST, PBS+0.05% Tween-20) and then blocked with 200 μl/well blocking buffer (5% w/v non-fatty milk in PBST) for 2 hours at 37° C. […] After incubation at 37° C. for 40 minutes, plates were washed using wash buffer, added and incubated with 100 μl/well Peroxidase Streptavidin for 40 minutes at 37° C. Plates were washed again using wash buffer. Finally, TMB was added and the reaction was stopped using 1M H₂SO₄. The absorbance was read on a microplate reader using dual wavelength mode with 450 nm for TMB and 630 nm as the reference wavelength, and the OD (450-630) values were plotted against antibody concentrations. Data was analyzed using Graphpad Prism software and IC₅₀ values were reported.

[9] = target: T5, human PD-1-his protein (Cat#:PD1-H5221, …); assay: BLI (Octet RED96), antibody captured on AHC sensor, human PD-1-his in solution, 1:1 fit (second run)
Protocol: as §1

[10] = target: T5, human PD-1-his protein (Cat#:PD1-H5221, …); assay: BLI (Octet RED96), antibody captured on AHC sensor, human PD-1-his in solution, 1:1 fit
Protocol: as §1

[11] = target: T6, recombinant human PD-1-his protein (Cat#:10377-H08H, Sino biological Inc.) (human, UniProt Q15116 25-167); assay: SPR (Biacore), protocol of Example 2
T6 construct: Bought protein used as analyte in the Biacore tests; not shown: his tag

[12] = target: T7, recombinant mouse PD-1-his protein (Cat#:50124-M08H, Sino Biological Inc) (mouse, UniProt Q02242 25-167); assay: SPR (Biacore), protocol of Example 2
T7 construct: Bought protein used in Biacore and indirect ELISA; not shown: his tag
T7 sequence (looked up): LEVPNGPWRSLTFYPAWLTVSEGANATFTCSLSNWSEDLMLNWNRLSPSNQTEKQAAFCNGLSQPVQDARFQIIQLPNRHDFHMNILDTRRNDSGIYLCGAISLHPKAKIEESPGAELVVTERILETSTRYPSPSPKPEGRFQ

Kd [7]: 1.84 nM
koff [7]: 0.000428 s⁻¹
kon [7]: 233000 M⁻¹ s⁻¹
B3: humanized antibody huE1A9C8A7-V6 (antibody, human IgG4 S228P, kappa)
heavy: not shown
light: DIVMTQTPLSLPVTPGEPASISCRSSQSIVHSNGNTYLEWYLQKPGQSPQLLIYKVSNRFSGVPDRFSGSGSGTDFTLKISRVEAEDVGVYYCFQGSHVPYTFGGGTKVEIKRTVAAPSVFIFPPSDEQLKSGTASVVCLLNNFYPREAKVQWKVDNALQSGNSQESVTEQDSKDSTYSLSSTLTLSKADYEKHKVYACEVTHQGLSSPVTKSFNRGEC
notes: Human IgG4/kappa

Kd [7]: 1.53 nM
koff [7]: 0.000296 s⁻¹
kon [7]: 194000 M⁻¹ s⁻¹
B5: humanized antibody huE1A9C8A7-V11 (antibody, human IgG4 S228P, kappa, V domains shown)
VH: QVQLVQSGAEVVKPGASVKISCKASGYTFTDYVMHWVRQAPGQSLEWIGVISTYHIPAVYNQKFKGKATMTRDTSTSTVYLELSSLRSEDTAVYYCAREVYGDSYYFDVWGQGTTVTVSS
VL: DIVMTQTPLSLPVTPGEPASISCRSSQSIVHSNGNTYLEWYLQKPGQSPQLLIYKVSNRFSGVPDRFSGSGSGTDFTLKISRVEAEDVGVYYCFQGSHVPYTFGGGTKVEIKR
notes: Human IgG4/kappa

Kd [7]: 1.63 nM
koff [7]: 0.000413 s⁻¹
kon [7]: 253000 M⁻¹ s⁻¹
B6: humanized antibody huE1A9C8A7-V9 (antibody, human IgG4 S228P, kappa, V domains shown)
VH: B5 VH with K67R, R72V
VL: B5 VL
notes: Human IgG4/kappa

Kd [7]: 1.5 nM
koff [7]: 0.000356 s⁻¹
kon [7]: 237000 M⁻¹ s⁻¹
B8: humanized antibody huE1A9C8A7-V7 (antibody, human IgG4 S228P, kappa, V domains shown)
VH: B5 VH with S44G, R72V
VL: B5 VL
notes: Human IgG4/kappa

Kd [7]: 1.59 nM
koff [7]: 0.000385 s⁻¹
kon [7]: 242000 M⁻¹ s⁻¹
B9: humanized antibody huE1A9C8A7-V10 (antibody, human IgG4 S228P, kappa, V domains shown)
VH: B5 VH with A68V, R72V
VL: B5 VL
notes: Human IgG4/kappa

Further lines, the binder ahead of its results:

B1: humanized antibody huE1A9C8A7-V5 (antibody, human IgG4 S228P, kappa)
heavy: not shown
light: B3 light
notes: Human IgG4/kappa
EC50 [1]: 0.9 nM
IC50 [2]: 0.35 nM
IC50 [3]: 0.54 nM
EC50 [4]: 0.21 nM
EC50 [5]: 0.66 nM
Cell-based functional assay (EC50, nM) [6]: 9.3 nM
Kd [7]: 1.01 nM
koff [7]: 0.000213 s⁻¹
kon [7]: 211000 M⁻¹ s⁻¹
IC50 [8]: 0.54 nM

B2: humanized antibody huE1A9C8A7-V1 (antibody, human IgG4 S228P, kappa, V domains shown)
VH: B5 VH with T30S, V37M, R72V, T74K
VL: B5 VL
notes: Human IgG4/kappa
Kd [7]: 1.54 nM
koff [7]: 0.000317 s⁻¹
kon [7]: 206000 M⁻¹ s⁻¹

B4: humanized antibody huE1A9C8A7-V4 (antibody, human IgG4 S228P, kappa, V domains shown)
VH: B5 VH with T30S, V37M, R72V
VL: B5 VL
notes: Human IgG4/kappa
Kd [7]: 1.49 nM
koff [7]: 0.00027 s⁻¹
kon [7]: 182000 M⁻¹ s⁻¹

B7: humanized antibody huE1A9C8A7-V2 (antibody, human IgG4 S228P, kappa, V domains shown)
VH: B5 VH with V37M, R72V, T74K
VL: B5 VL
notes: Human IgG4/kappa
Kd [7]: 1.49 nM
koff [7]: 0.000294 s⁻¹
kon [7]: 197000 M⁻¹ s⁻¹

B10: Chimeric E1A9C8A7 antibody (antibody, human IgG4 S228P, kappa, V domains shown)
VH: QVQLQQSGAEVVRPGVSVRISCKGSGYTFSDYVMHWMKQSHGESLEWIGVISTYHIPAVYNQKFKGKATMTVDKSSSTVYLELARLTSEDSAIYYCAREVYGDSYYFDVWGAGTTVTVSS
VL: DVLMTQIPLSLPVSLGDQVSISCRSSQSIVHSNGNTYLEWYLQKPGQSPKLLIYKVSNRFSGVPDRFSGSGSGTDFTLKISRVEAEDLGVYYCFQGSHVPYTFGGGTKLEIKR
notes: also called chimeric antibody E1A9C8A7
Kd [9]: 2.18 nM
koff [9]: 0.000597 s⁻¹
kon [9]: 274000 M⁻¹ s⁻¹
Kd [10]: 1.32 nM
koff [10]: 0.000316 s⁻¹
kon [10]: 239000 M⁻¹ s⁻¹
EC50 [1]: 0.85 nM
IC50 [2]: 0.38 nM
IC50 [3]: 0.57 nM
EC50 [4]: 0.21 nM
EC50 [5]: 0.67 nM
Cell-based functional assay (EC50, nM) [6]: 7.45 nM
IC50 [8]: 0.61 nM
Kd [11]: 1.11 nM
koff [11]: 0.000645 s⁻¹
kon [11]: 580000 M⁻¹ s⁻¹
Kd [12]: 162 nM
koff [12]: 0.027 s⁻¹
kon [12]: 167000 M⁻¹ s⁻¹

From patent US20230331848A1 (BIOSION, published 2023)
